Broadly, the koff is the first-order rate constant of dissociation. Low values mean a long-lived complex, high ones a short-lived complex. By kon is commonly meant the rate constant with which the complex forms. The low end stands for slower complex formation, the high end for faster complex formation. For orientation: Kd means a measure of binding affinity in units of concentration. Low readings indicate a tighter complex, high ones a looser complex.

To fix the notation:
B1: peptide NRNNTG (peptide)
peptide: NRNNTG
B2: peptide ANNNMYRR (peptide)
peptide: ANNNMYRR
B3: peptide ALLLMYRR (peptide)
peptide: ALLLMYRR
B4: peptide NRLLTG (peptide)
peptide: NRLLTG

The first test concerns the target PfHsp70-x C-terminal truncated version with a missing EEVN motif (Plasmodium falciparum). As to the kind of experiment: SPR; PfHsp70-x or PfHsp70-xT immobilised on ProteOn GLC chips as ligands; peptides as analytes at 1.25-20 nM, 50 uL/min; 25 °C; PBS-Tween; with 2 mM ADP. In general terms: In SPR one partner is held on a chip, and binding of the other changes the refractive index at the surface.
B1 gave a koff of 1.01e-08 s⁻¹ and a kon of 5.96 M⁻¹ s⁻¹.
The molecule B2 had an off-rate (koff) of 1.04e-05 s⁻¹.
Same read-out and setting: as for B3, the figure is 1.04e-05 s⁻¹.
In the case of B4, the koff was 1e-05 s⁻¹ and the kon amounted to 6 M⁻¹ s⁻¹.

The target of the next test is Plasmodium falciparum Hsp70-x (full length) (Plasmodium falciparum). Described as above.
Turning to B1, the koff turned out to be 1.03e-07 s⁻¹ and the on-rate constant (kon) is 2.55 M⁻¹ s⁻¹.
Taken in the same sequence, the figures for B2 were 0.00386 s⁻¹ and 1.74e+06 M⁻¹ s⁻¹.
B3: the koff worked out at 0.00282 s⁻¹.
Molecule B4 displayed an off-rate constant (koff) of 1.01e-05 s⁻¹ and an association rate constant (kon) of 1.62 M⁻¹ s⁻¹.

For a further test, the target named is PfHsp70-x C-terminal truncated version with a missing EEVN motif (Plasmodium falciparum). As to the kind of experiment: SPR; PfHsp70-x or PfHsp70-xT immobilised on ProteOn GLC chips as ligands; peptides as analytes at 1.25-20 nM, 50 uL/min; 25 °C; PBS-Tween; with 2 mM ATP.
In turn, B1 showed a koff of 1.01e-05 s⁻¹ and a kon of 9.37 M⁻¹ s⁻¹.
In turn, B4 displayed a dissociation rate constant (koff) of 0.000161 s⁻¹ and an on-rate constant (kon) of 31.8 M⁻¹ s⁻¹.

A further test has as its target Plasmodium falciparum Hsp70-x (full length) (Plasmodium falciparum). The description is as above.
Consider B1, for which the off-rate constant (koff) came to 1.01e-06 s⁻¹ and the kon stood at 7.33 M⁻¹ s⁻¹.
The molecule B2 came in with a koff of 0.00567 s⁻¹ and a kon of 7240 M⁻¹ s⁻¹.
B3 came in with an off-rate constant (koff) of 1.6e-06 s⁻¹.
With B4, the koff was found to be 1.01e-05 s⁻¹ and the on-rate constant (kon) amounted to 1.21 M⁻¹ s⁻¹.

In the next test the target is PfHsp70‐x C‐terminal truncated version with a missing EEVN motif (Plasmodium falciparum). Put plainly: SPR; PfHsp70‐x or PfHsp70‐xT immobilised on ProteOn GLC chips, peptides as analytes at 1.25-20 nM, 25°C, PBS‐Tween pH 7.4, with 2 mM ADP.
On to B1, for which the Kd is 1.69 nM.
Still for that read-out and setting: in the case of B2 it was 443000 nM.
The same measure, in the same setting: as for B3, the figure is 313000 nM; as for B4, 170 nM.

A further test deals with Plasmodium falciparum Hsp70‐x (full length) (Plasmodium falciparum). The description is as above.
B1 registered a Kd of 4.31 nM.
Same read-out and setting: as for B2, the figure is 2.21 nM.
Take B3: the Kd was found to be 2820 nM.
Still for that read-out and setting: in the case of B4 it was 620 nM.

Another test addresses PfHsp70‐x C‐terminal truncated version with a missing EEVN motif (Plasmodium falciparum). As to the kind of experiment: SPR; PfHsp70‐x or PfHsp70‐xT immobilised on ProteOn GLC chips, peptides as analytes at 1.25-20 nM, 25°C, PBS‐Tween pH 7.4, with 2 mM ATP.
Molecule B1 displayed a Kd of 107 nM.
In turn, B4 had a Kd of 1800 nM.

For a further test, the target named is Plasmodium falciparum Hsp70‐x (full length) (Plasmodium falciparum). The description is as above.
B1 showed a Kd of 137 nM.
The same measure, in the same setting: as for B2, the figure is 783 nM.
B3 displayed a Kd of 60600 nM.
For the molecule B4, the Kd worked out at 1700 nM.

The target of another test is PfHsp70‐x C‐terminal truncated version with a missing EEVN motif (Plasmodium falciparum). As to the kind of experiment: SPR; PfHsp70‐x or PfHsp70‐xT immobilised on ProteOn GLC chips, peptides as analytes at 1.25-20 nM, 25°C, PBS‐Tween pH 7.4, no nucleotide.
On to B1, for which the Kd amounted to 7.92 nM.
Still for that read-out and setting: as for B2, the figure is 626000 nM; as for B3, 542000 nM; as for B4, 280 nM.

The next test addresses Plasmodium falciparum Hsp70‐x (full length) (Plasmodium falciparum). The description is as above.
B1 gave a dissociation constant Kd of 6.91 nM.
Still for that read-out and setting: as for B2, the figure is 2.21 nM; as for B3, 1470 nM; as for B4, 250 nM.

In a further test the target is PfHsp70-x C-terminal truncated version with a missing EEVN motif (Plasmodium falciparum). Put plainly: SPR; PfHsp70-x or PfHsp70-xT immobilised on ProteOn GLC chips as ligands; peptides as analytes at 1.25-20 nM, 50 uL/min; 25 °C; PBS-Tween; no nucleotide.
B1 showed an off-rate constant (koff) of 2.79e-08 s⁻¹ and an on-rate constant (kon) of 3.52 M⁻¹ s⁻¹.
Molecule B2 registered an off-rate (koff) of 1.04e-05 s⁻¹.
B3 had a koff of 1.04e-05 s⁻¹.
For B4, the koff turned out to be 8.67e-06 s⁻¹ and the kon was 3.15 M⁻¹ s⁻¹.

The next test deals with Plasmodium falciparum Hsp70-x (full length) (Plasmodium falciparum). Described as above.
On to B1, for which the off-rate constant (koff) was 9.49e-07 s⁻¹ and the kon amounted to 2.43 M⁻¹ s⁻¹.
With B2, the koff turned out to be 0.000732 s⁻¹ and the on-rate constant (kon) worked out at 331000 M⁻¹ s⁻¹.
B3 returned a koff of 1.28e-06 s⁻¹.
The molecule B4 gave an off-rate constant (koff) of 9.97e-06 s⁻¹ and a kon of 3.86 M⁻¹ s⁻¹.

Source of the values: PMC6282620, “Structural and biochemical characterization of Plasmodium falciparum Hsp70‐x reveals functional versatility of its C‐terminal EEVN motif” (Proteins, 2018).
